# Patent US7547509B2, “Cyanovirin variant-polymer conjugates” (priority 2002, dated 2009)
# B1: Cyanovirin-N (protein, listed as Nostoc ellipsosporum)
# chain: LGKFSQTCYNSAIQGSVLTSTCERTNGGYNTSSIDLNSVIENVDGSLKWQPSNFIETCRNTQLAGSSELAAECKTRAQQFVSTKINLDDHIANIDGTLKYE
# Legend:
# [1] = Acute toxicity dose escalation study in mice; assay type: in vivo, Hsd:ICR(CD-1) mice; conditions: intravenously on three consecutive days, high doses / equivalent dose
# Experimental: To compare the acute toxicity of native CV-N and the PEG30 kD-MAL-CV-N(Q62C) conjugate, an in vivo dose escalation study was performed in which Hsd:ICR(CD-1) mice were administered modified or unmodified CN-N intravenously on three consecutive days.
# [2] = test system: HIV; experiment: Anti-HIV bioassay conducted at the National Cancer Institute; assay type: cell-based; conditions: against HIV, methods of U.S. Pat. No. 5,843,883
# Experimental: Bioassays were conducted at the National Cancer Institute using the methods described in U.S. Pat. No. 5,843,883 (column 20, lines 20-55), which patent is incorporated herein by reference.
# [3] = test system: influenza A/Udorn (H3N2); experiment: Influenza virus inactivation assay (protection of MDCK cells); assay type: cell-based; conditions: read on day 5, read-out: ED50 (dose required to protect 50% of MDCK cells from influenza infection)
molecule,measurement,setting,value
B1,acute toxicity (observation),[1],death of all of the mice
same,ED50,[2],1 ng/mL
same,EC50,[3],2.56 nM
